Article PMC6443190, “Regulation of anthocyanin accumulation via MYB75/HAT1/TPL-mediated transcriptional repression” (PLoS Genetics, 2019)

T1: MBP-HAT1 (Arabidopsis thaliana, UniProt P46600 1-282)
T1 construct: HAT1, Arabidopsis thaliana, At4g17460; full-length, in pMALc-B; pMALc-B; also called full-length HAT1
T1 sequence (looked up): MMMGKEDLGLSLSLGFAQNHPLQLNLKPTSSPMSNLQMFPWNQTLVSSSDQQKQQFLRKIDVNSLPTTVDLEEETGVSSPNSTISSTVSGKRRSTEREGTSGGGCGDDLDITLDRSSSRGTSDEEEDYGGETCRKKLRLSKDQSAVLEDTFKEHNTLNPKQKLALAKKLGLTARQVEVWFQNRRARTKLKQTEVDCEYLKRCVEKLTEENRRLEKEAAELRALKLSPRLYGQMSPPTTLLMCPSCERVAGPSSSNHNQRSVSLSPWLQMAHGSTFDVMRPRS

T2: MBP-EGL3 (Arabidopsis thaliana, UniProt Q9CAD0 1-596)
T2 construct: EGL3, Arabidopsis thaliana, At1g63650; pMAL-C2X
T2 sequence (looked up): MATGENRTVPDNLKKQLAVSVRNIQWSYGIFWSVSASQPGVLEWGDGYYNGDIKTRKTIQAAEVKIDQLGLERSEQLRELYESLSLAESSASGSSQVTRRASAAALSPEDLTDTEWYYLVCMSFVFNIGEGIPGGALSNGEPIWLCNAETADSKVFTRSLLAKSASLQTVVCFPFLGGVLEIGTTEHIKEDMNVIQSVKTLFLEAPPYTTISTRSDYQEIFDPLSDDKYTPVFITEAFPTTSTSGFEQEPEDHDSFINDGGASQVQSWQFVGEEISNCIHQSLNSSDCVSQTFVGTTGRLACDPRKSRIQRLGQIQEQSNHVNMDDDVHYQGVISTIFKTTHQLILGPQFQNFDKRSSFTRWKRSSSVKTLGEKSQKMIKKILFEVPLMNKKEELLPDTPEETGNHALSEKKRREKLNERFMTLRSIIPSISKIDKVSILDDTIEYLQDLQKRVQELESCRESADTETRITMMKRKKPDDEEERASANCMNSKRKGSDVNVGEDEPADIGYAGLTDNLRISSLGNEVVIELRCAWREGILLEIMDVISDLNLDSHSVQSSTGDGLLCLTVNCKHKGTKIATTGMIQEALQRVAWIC

T3: HIS-HAT1 (Arabidopsis thaliana, UniProt P46600 1-282)
T3 construct: HAT1, Arabidopsis thaliana, At4g17460; full-length, in pET28a; pET28a; also called full-length HAT1
T3 sequence (looked up): T1 sequence (looked up)

T4: MBP-TT8 (Arabidopsis thaliana, UniProt Q9FT81 1-518)
T4 construct: TT8, Arabidopsis thaliana, At4g09820; pMAL-C2X
T4 sequence (looked up): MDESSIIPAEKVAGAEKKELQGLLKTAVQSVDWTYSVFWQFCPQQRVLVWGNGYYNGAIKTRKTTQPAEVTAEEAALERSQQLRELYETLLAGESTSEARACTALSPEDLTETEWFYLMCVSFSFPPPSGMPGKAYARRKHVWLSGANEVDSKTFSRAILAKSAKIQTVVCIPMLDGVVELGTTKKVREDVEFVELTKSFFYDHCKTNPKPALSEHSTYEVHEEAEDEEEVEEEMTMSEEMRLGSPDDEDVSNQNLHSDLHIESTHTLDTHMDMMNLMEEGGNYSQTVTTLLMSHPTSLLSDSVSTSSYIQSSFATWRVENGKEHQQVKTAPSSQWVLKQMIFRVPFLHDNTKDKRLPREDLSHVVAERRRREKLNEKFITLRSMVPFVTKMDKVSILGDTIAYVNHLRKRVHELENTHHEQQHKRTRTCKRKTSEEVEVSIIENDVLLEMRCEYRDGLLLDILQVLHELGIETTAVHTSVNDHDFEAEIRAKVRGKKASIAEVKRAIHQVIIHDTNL

B1: HAT1 C-terminal fragment (pull-down fragment) (domain or fragment, Arabidopsis thaliana, UniProt P46600 234-282, looked up)
chain: SPPTTLLMCPSCERVAGPSSSNHNQRSVSLSPWLQMAHGSTFDVMRPRS
notes: HAT1, Arabidopsis thaliana, At4g17460; also called C-terminus of HAT1; not shown: 6xHis (inferred from the set-up of the methods)
B2: HIS-MYB75 (natural protein, Arabidopsis thaliana, UniProt Q9FE25 1-248, looked up)
chain: MEGSSKGLRKGAWTTEEDSLLRQCINKYGEGKWHQVPVRAGLNRCRKSCRLRWLNYLKPSIKRGKLSSDEVDLLLRLHRLLGNRWSLIAGRLPGRTANDVKNYWNTHLSKKHEPCCKIKMKKRDITPIPTTPALKNNVYKPRPRSFTVNNDCNHLNAPPKVDVNPPCLGLNINNVCDNSIIYNKDKKKDQLVNNLIDGDNMWLEKFLEESQEVDILVPEATTTEKGDTLAFDVDQLWSLFDGETVKFD
notes: MYB75, Arabidopsis thaliana, At1g56650; full-length, in pET28a; pET28a; also called full-length MYB75
B3: MBP-MYB75 (natural protein, Arabidopsis thaliana, UniProt Q9FE25 1-248, looked up)
chain: B2 chain
notes: MYB75, Arabidopsis thaliana, At1g56650; full-length, in pMAL-C2X; pMAL-C2X; also called full-length MYB75

Columns and labels:
Conditions in all cases: both partners purified
MBP-MYB75 = molecular target: B3; assay: pull-down; Ni-NTA beads with 5 ug HIS protein incubated with 5 ug MBP protein; 150 mM NaCl, 20 mM Tris, 0.2% Triton X-100, pH 8.0, 4 C, 2 h; anti-MBP blot
MBP-HAT1 = molecular target: T1, MBP-HAT1; assay: as above
MBP-EGL3 = molecular target: T2, MBP-EGL3; assay: pull-down; competitive HIS pull-down: 5 ug MBP-TT8 or MBP-EGL3 mixed with 5, 10 or 20 ug HIS-HAT1, on Ni-NTA beads with 5 ug HIS-MYB75; 150 mM NaCl, 20 mM Tris, 0.2% Triton X-100, pH 8.0, 4 C, 2 h; anti-MBP blot
HIS-HAT1 [1] = molecular target: T3, HIS-HAT1; assay: as above
MBP-TT8 = molecular target: T4, MBP-TT8; assay: as above
HIS-HAT1 [2] = molecular target: T3, HIS-HAT1; assay: pull-down; Ni-NTA beads with 5 ug HIS protein incubated with 5 ug MBP protein; 150 mM NaCl, 20 mM Tris, 0.2% Triton X-100, pH 8.0, 4 C, 2 h; anti-MBP blot

B1: binds (MBP-MYB75).

B2: binds (MBP-HAT1); binds (MBP-EGL3); binds (HIS-HAT1 [1]). B2: binds (MBP-TT8).

B3: binds (HIS-HAT1 [2]).
